Laboratory results reported in PMC11059514 (Molecular Metabolism, 2024).

Molecular target: T1, PPARα bait (pCLG-PPARα), full-length PPARα fused to a mutant leptin receptor (UniProt Q07869 1-468)
T1 sequence: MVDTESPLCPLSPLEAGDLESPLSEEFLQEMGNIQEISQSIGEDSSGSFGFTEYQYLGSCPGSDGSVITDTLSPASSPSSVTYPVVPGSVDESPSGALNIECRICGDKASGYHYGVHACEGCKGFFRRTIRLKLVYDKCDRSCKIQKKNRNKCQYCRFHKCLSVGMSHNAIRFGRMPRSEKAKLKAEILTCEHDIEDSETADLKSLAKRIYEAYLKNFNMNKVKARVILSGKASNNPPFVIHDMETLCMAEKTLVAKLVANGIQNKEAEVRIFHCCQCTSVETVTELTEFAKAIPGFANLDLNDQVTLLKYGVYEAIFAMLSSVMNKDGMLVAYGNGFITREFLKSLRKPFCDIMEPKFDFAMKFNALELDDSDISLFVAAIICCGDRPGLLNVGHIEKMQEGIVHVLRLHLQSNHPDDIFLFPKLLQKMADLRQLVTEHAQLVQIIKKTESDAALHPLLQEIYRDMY
Test: two-hybrid

B1: ERRα prey (pMG1-ERRα), full-size ERRα ORF coupled to gp130 (natural protein)
chain: MSSQVVGIEPLYIKAEPASPDSPKGSSETETEPPVALAPGPAPTRCLPGHKEEEDGEGAGPGEQGGGKLVLSSLPKRLCLVCGDVASGYHYGVASCEACKAFFKRTIQGSIEYSCPASNECEITKRRRKACQACRFTKCLRVGMLKEGVRLDRVRGGRQKYKRRPEVDPLPFPGPFPAGPLAVAGGPRKTAAPVNALVSHLLVVEPEKLYAMPDPAGPDGHLPAVATLCDLFDREIVVTISWAKSIPGFSSLSLSDQMSVLQSVWMEVLVLGVAQRSLPLQDELAFAEDLVLDEEGARAAGLGELGAALLQLVRRLQALRLEREEYVLLKALALANSDSVHIEDAEAVEQLREALHEALLEYEAGRAGPGGGAERRRAGRLLLTLPLLRQTAGKVLAHFYGVKLEGKVPMHKLFLEMLEAMMD
  fold increase of the MAPPIT signal on serum starvation: ~3 fold
